From article PMC6160412, “Structural insights into modulation and selectivity of transsynaptic neurexin–LRRTM interaction” (Nature Communications, 2018)
Residue numbers refer to the chain shown, from its start. Names and notes keep the numbering of the source.

T1: human LRRTM2 LRR domain, wild type (human, UniProt O43300 34-371)
T1 construct: signal peptide in the construct; human LRRTM2 LRR domain, residues 1-371 cloned (residues 34-371 are named for the crystallised protein); Secreted with its own signal peptide; the mature protein probably begins at residue 34, as in the crystallised protein; also called LRRTM2^WT; hLRRTM2; source: Expi293F, transiently expressed, purified from culture medium (Ni-NTA, SEC)
T1 sequence (looked up): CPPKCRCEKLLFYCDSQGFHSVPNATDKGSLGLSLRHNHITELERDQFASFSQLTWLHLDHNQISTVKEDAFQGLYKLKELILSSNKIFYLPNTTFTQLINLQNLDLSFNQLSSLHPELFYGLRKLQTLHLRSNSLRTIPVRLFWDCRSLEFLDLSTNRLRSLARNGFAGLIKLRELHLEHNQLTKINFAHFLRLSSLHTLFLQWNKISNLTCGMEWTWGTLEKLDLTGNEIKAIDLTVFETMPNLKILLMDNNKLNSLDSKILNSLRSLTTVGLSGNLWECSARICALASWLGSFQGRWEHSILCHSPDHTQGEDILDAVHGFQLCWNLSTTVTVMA

T2: human LRRTM2 LRR domain, D352A mutant (human, UniProt O43300 34-371, D352A)
T2 construct: signal peptide in the construct; human LRRTM2 LRR domain, residues 1-371 cloned, with D352A; also called LRRTM2 D352A; source: Expi293F, transiently expressed, purified from culture medium (Ni-NTA, SEC)
T2 sequence (looked up): T1 sequence (looked up) with D319A

T3: human LRRTM2 LRR domain, F357Y mutant (human, UniProt O43300 34-371, F357Y)
T3 construct: signal peptide in the construct; human LRRTM2 LRR domain, residues 1-371 cloned, with F357Y; also called LRRTM2^F357Y; source: Expi293F, transiently expressed, purified from culture medium (Ni-NTA, SEC)
T3 sequence (looked up): T1 sequence (looked up) with F324Y

T4: human LRRTM2 LRR domain, H355A mutant (human, UniProt O43300 34-371, H355A)
T4 construct: signal peptide in the construct; human LRRTM2 LRR domain, residues 1-371 cloned, with H355A; Neuraminidase was added before crystallization to trim N-linked glycans; also called LRRTM2^H355A; hLRRTM2^H355A; source: Expi293F, transiently expressed, purified from culture medium (Ni-NTA, SEC); for crystallization coexpressed with Nrxn1β (–S4) LNS and separated by SEC
T4 sequence (looked up): T1 sequence (looked up) with H322A

B1: human Nrxn1β LNS domain (–S4), R206A mutant (domain or fragment)
chain: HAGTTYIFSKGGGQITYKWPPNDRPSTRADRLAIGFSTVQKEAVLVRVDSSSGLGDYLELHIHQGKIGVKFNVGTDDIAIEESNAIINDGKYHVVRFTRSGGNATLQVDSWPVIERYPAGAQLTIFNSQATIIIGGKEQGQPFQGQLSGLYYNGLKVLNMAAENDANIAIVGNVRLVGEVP
modifications: Ca2+-bound (2 mM CaCl2). Entry P58400 carries the S4 insert at 205-234, so paper (-S4) residues 205-266 are entry 235-296 (R206 = R236).
B2: human Nrxn1β LNS domain with the S4 insert (+S4) (domain or fragment)
chain: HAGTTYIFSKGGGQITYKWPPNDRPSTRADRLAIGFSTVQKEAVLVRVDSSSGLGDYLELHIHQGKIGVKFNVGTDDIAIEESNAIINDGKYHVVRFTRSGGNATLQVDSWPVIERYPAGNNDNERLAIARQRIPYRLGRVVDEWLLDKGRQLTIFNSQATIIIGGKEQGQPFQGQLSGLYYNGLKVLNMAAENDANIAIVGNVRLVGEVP
modifications: Ca2+-bound (2 mM CaCl2). S4 insert is entry residues 205-234.
B3: human Nrxn1β LNS domain (–S4), wild type (domain or fragment)
chain: not shown
notes: human neurexin-1β LNS domain, splice variant without the S4 insert, residues 86-266; numbers count on: human Nrxn1β (–S4) (NM_001330092.1); also called Nrxn1β (–S4); Nrxin1β (–S4); source: Expi293F, transiently expressed, purified from culture medium (Ni-NTA, SEC); for crystallization coexpressed with LRRTM2 LRR and separated by SEC

Key:
Conditions in all cases: both partners purified
[1] = biological target: T1, human LRRTM2 LRR domain, wild type; assay: SPR; Biacore T200; wild-type or mutant LRRTM immobilised on a CM5 chip by amine coupling; Nrxn1β as analyte in two-fold dilutions from 40 µM (from 160 µM for +S4 and R206A); 25 °C; 20 mM Hepes-NaOH pH 7.5, 150 mM NaCl, 2 mM CaCl2, 0.005% Tween-20, 0.5 g/L BSA; equilibrium KD
[2] = biological target: T1, human LRRTM2 LRR domain, wild type; assay: ITC; MicroCal Auto-iTC, 25 °C; LRRTM2 (15 µM) in the cell, Nrxn1β (200 µM) injected; 20 mM Hepes-NaOH pH 7.5, 150 mM NaCl, 2 mM CaCl2, 0.005% Tween-20, no BSA; one-site model
[3] = biological target: T2, human LRRTM2 LRR domain, D352A mutant; assay: SPR; Biacore T200; wild-type or mutant LRRTM immobilised on a CM5 chip by amine coupling; Nrxn1β as analyte in two-fold dilutions from 40 µM (from 160 µM for +S4 and R206A); 25 °C; 20 mM Hepes-NaOH pH 7.5, 150 mM NaCl, 2 mM CaCl2, 0.005% Tween-20, 0.5 g/L BSA; equilibrium KD
[4] = biological target: T3, human LRRTM2 LRR domain, F357Y mutant; assay: as above
[5] = biological target: T4, human LRRTM2 LRR domain, H355A mutant; assay: as above

| Binder | Kd [1] [µM] | Kd [2] [µM] | fold decrease in affinity against wild-type LRRTM2 [3] [fold] | fold decrease in affinity against wild-type LRRTM2 [4] [fold] | Kd [5] [µM] |
| --- | --- | --- | --- | --- | --- |
| B1 | > 160 |  |  |  |  |
| B2 | > 80 |  |  |  |  |
| B3 | 4 | 4.2 | > 9 | ~5 | 4.3 |
